Assay results: patent publication EP2450379B1

What was measured:
[1] = biological target: recombinant HA, subtype H3 (A/Wyoming/3/2003(H3N2)) (influenza A virus A/Wyoming/3/2003 (H3N2)); experiment: ELISA, IgG 5 µg/ml
[2] = biological target: recombinant HA, subtype H7 (A/Netherlands/219/03 (H7N7)) (influenza A virus A/Netherlands/219/03 (H7N7)); experiment: ELISA, IgG 5 µg/ml
[3] = biological target: recombinant HA, subtype H5 (A/Vietnam/1203/2004 (H5N1)) (influenza A virus A/Vietnam/1203/2004 (H5N1)) (UniProt Q80A26); experiment: ELISA, IgG 5 µg/ml
[4] = biological target: full-length HA from isolate A/Vietnam/1194/2004 (H5N1TV) expressed on PER.C6 cells (influenza A virus A/Vietnam/1194/2004 (H5N1)) (UniProt Q80A26); experiment: FACS on HA (H5N1TV)-expressing PER.C6 cells, IgG 10 µg/ml
[5] = biological target: recombinant HA, subtype H9 (A/Hong Kong/1073/99 (H9N2)) (influenza A virus A/Hong Kong/1073/99 (H9N2)); experiment: ELISA, IgG 5 µg/ml
[6] = biological target: recombinant HA, subtype H1 (A/New Caledonia/20/99 (H1N1)) (influenza A virus A/New Caledonia/20/99 (H1N1)) (UniProt Q289M7); experiment: ELISA, IgG 5 µg/ml
[7] = biological target: full-length HA from isolate A/Vietnam/1194/2004 (H5N1TV) expressed on PER.C6 cells (influenza A virus A/Vietnam/1194/2004 (H5N1)) (UniProt Q80A26); experiment: FACS on HA (H5N1TV)-expressing PER.C6 cells, IgG 0.1 µg/ml
[8] = biological target: full-length HA from isolate A/Vietnam/1194/2004 (H5N1TV) expressed on PER.C6 cells (influenza A virus A/Vietnam/1194/2004 (H5N1)) (UniProt Q80A26); experiment: FACS on HA (H5N1TV)-expressing PER.C6 cells, IgG 1 µg/ml, separate experiment
[9] = biological target: full-length HA from isolate A/Vietnam/1194/2004 (H5N1TV) expressed on PER.C6 cells (influenza A virus A/Vietnam/1194/2004 (H5N1)) (UniProt Q80A26); experiment: FACS on HA (H5N1TV)-expressing PER.C6 cells, IgG 10 µg/ml, separate experiment
[10] = biological target: full-length HA from isolate A/Vietnam/1194/2004 (H5N1TV) expressed on PER.C6 cells (influenza A virus A/Vietnam/1194/2004 (H5N1)) (UniProt Q80A26); experiment: FACS on HA (H5N1TV)-expressing PER.C6 cells, IgG 1 µg/ml
[11] = biological target: full-length HA from isolate A/Vietnam/1194/2004 (H5N1TV) expressed on PER.C6 cells (influenza A virus A/Vietnam/1194/2004 (H5N1)) (UniProt Q80A26); experiment: FACS on HA (H5N1TV)-expressing PER.C6 cells, IgG 0.1 µg/ml, separate experiment

CR6261 (antibody) was tested. Which OD 492nm [1] did it give?
The OD 492nm was 0.07 OD 492nm.

And the OD 492nm [2]?
The OD 492nm was 0.31 OD 492nm.

What about the OD 492nm [3] of the same substance?
The OD 492nm was 1.44 OD 492nm.

With CR3014 (antibody) as the substance, how does the flow cytometry signal [4] read?
Its flow cytometry signal is 13.1.

And the OD 492nm [1]?
The OD 492nm was 0.07 OD 492nm.

What about the OD 492nm [5] of the same substance?
The OD 492nm was 0.16 OD 492nm.

And the OD 492nm [6]?
The OD 492nm was 0.08 OD 492nm.

And the OD 492nm [2]?
The OD 492nm was 0.17 OD 492nm.

And the OD 492nm [3]?
Its OD 492nm is 0.09 OD 492nm.

What about the flow cytometry signal [7] of the same substance?
The flow cytometry signal was 6.21.

And the flow cytometry signal [8]?
The flow cytometry signal was 7.95.

And the flow cytometry signal [9]?
Its flow cytometry signal is 9.15.

And the flow cytometry signal [10]?
The flow cytometry signal was 10.

What about the flow cytometry signal [11] of the same substance?
Its flow cytometry signal is 10.5.
